The values that follow come from publication PMC12232546 (Proceedings of the National Academy of Sciences of the …, 2025).

For this assay, the target named is VASP-EVH1 (human VASP aa1-115, GST cleaved with thrombin) (human, UniProt P50552 1-115). Kind of assay: ITC. A general note: In ITC the heat of successive injections is recorded.
Sequence of VASP-EVH1 (human VASP aa1-115, GST cleaved with thrombin) (P50552 1-115): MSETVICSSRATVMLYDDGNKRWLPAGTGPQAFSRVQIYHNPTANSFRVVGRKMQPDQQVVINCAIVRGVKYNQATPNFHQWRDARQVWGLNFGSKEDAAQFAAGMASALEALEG

B1: 15-mer WAVE2-derived peptide Ac-SEDNLPPPPAEFSYP-NH2 (peptide)
peptide: Ac-SEDNLPPPPAEFSYP-NH2
Regarding B1, the equilibrium dissociation constant (Kd) came to 250 µM.

A word on the Kd: it is the constant that tells how readily two partners part at equilibrium. Read a high Kd as lower affinity.
